One may read the Kd as a measure of binding affinity in units of concentration.

In this experiment the target is rmSiglec1-mFc (mouse, UniProt Q62230 20-1639). Nature of the experiment: SPR. In general terms: In SPR one partner is held on a chip, and binding of the other changes the refractive index at the surface.
Sequence of rmSiglec1-mFc (Q62230 20-1639): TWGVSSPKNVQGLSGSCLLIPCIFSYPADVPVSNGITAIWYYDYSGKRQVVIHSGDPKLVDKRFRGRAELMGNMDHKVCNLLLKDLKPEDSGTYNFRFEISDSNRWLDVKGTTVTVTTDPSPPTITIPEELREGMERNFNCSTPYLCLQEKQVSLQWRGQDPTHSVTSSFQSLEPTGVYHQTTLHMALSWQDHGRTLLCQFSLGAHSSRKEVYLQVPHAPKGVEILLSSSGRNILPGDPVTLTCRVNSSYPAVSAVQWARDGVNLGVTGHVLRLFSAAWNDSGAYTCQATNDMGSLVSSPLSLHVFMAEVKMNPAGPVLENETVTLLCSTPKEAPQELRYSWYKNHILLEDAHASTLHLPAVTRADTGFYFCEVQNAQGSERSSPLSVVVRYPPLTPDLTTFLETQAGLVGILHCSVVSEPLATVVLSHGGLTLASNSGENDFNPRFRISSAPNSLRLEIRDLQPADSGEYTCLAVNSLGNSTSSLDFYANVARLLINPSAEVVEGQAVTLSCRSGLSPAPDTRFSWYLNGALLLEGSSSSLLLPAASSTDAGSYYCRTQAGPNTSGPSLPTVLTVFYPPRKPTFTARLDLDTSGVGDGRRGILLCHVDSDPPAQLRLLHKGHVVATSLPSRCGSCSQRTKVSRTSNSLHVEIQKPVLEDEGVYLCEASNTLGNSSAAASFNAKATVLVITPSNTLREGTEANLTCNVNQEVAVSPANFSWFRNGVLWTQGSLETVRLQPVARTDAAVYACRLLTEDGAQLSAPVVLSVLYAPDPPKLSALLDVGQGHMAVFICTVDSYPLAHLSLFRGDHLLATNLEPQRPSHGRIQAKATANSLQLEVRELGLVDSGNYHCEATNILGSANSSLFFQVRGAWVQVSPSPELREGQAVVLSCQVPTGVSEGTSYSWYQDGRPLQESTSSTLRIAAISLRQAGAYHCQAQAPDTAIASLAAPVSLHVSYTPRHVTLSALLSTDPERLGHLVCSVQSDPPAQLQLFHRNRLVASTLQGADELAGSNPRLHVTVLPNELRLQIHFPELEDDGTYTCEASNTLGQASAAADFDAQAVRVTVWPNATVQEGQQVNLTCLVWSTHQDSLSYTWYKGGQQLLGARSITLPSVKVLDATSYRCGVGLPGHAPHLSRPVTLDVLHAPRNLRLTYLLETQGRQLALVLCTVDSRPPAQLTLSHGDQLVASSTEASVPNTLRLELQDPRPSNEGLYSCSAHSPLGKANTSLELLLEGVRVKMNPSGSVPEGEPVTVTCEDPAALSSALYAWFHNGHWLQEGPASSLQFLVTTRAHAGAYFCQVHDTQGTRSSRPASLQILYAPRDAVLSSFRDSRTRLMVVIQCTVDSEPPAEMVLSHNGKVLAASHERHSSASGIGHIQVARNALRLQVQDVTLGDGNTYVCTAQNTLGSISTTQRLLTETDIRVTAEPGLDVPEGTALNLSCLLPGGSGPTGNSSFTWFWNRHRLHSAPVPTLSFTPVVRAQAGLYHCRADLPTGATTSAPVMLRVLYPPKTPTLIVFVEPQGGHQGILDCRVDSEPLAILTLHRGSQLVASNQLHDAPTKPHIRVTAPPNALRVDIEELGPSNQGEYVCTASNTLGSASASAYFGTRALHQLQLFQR

B1: rmCD43-hFc (Fc fusion, mouse, UniProt P15702 20-248, looked up)
chain: DSLQRTTMLPSTPHITAPSTSEAQNASPSVSVGSGTVDSKETISPWGQTTIPVSLTPLETTELSSLETSAGASMSTPVPEPTASQEVSSKTSALLPEPSNVASDPPVTAANPVTDGPAANPVTDGTAASTSISKGTSAPPTTVTTSSNETSGPSVATTVSSKTSGPPVTTATGSLGPSSEMHGLPATTATSSVESSSVARGTSVSSRKTSTTSTQDPITTRSPSQESSG
The molecule B1 registered a dissociation constant (Kd) of 107 nM.

The values above are taken from paper PMC10388275 (Haematologica, 2023).
